Laboratory results taken from paper PMC3240612, “Quantitative Multicolor Super-Resolution Microscopy Reveals Tetherin HIV-1 Interaction” (PLoS Pathogens, 2011).

What was measured:
[1] = target: T1, HA-tetherin (N-terminal HA-tagged tetherin), in virions released by PI-PLC (human), Q10589; conditions: remark: other sources report otherwise
T1 chain: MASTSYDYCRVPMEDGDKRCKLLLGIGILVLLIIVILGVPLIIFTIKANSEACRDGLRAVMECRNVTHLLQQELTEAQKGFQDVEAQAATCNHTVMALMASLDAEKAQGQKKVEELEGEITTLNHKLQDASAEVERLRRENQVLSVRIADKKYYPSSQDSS

[2] = target: T2, tetherin-HA (HA tag inserted after the extracellular coiled-coil domain), in virions released by PI-PLC (human), Q10589; conditions: remark: other sources report otherwise
T2 chain: T1 chain

[3] = target: the molecule itself; experiment: non-reducing against reducing SDS-PAGE with Western blot; virions stripped from 293T cells by subtilisin A (0, 5 or 50 µg/ML), pelleted through sucrose, lysed in RIPA; anti-HA blot without βME and with βME

B1: HA-tetherin (N-terminal HA-tagged tetherin), in virions released by PI-PLC, Q10589 1-161 (natural protein)
chain: T1 chain
modifications: here or on the partner: C-terminal GPI anchor, cut by PI-PLC; C-terminal GPI anchor, cut by PI-PLC
- stoichiometry N [1]: 2

B2: tetherin-HA (HA tag inserted after the extracellular coiled-coil domain), in virions released by PI-PLC, Q10589 1-161 (natural protein)
chain: T1 chain
modifications: here or on the partner: C-terminal GPI anchor, cut by PI-PLC; C-terminal GPI anchor, cut by PI-PLC
- stoichiometry N [2]: 2

B3: N-terminal fragment of HA-tetherin left inside virions after subtilisin A treatment (domain or fragment, human, UniProt Q10589 1-67, looked up)
chain: MASTSYDYCRVPMEDGDKRCKLLLGIGILVLLIIVILGVPLIIFTIKANSEACRDGLRAVMECRNVT
notes: tetherin (CD317, BST-2, HM1.24), human, Swiss-Prot Q10589; N-terminal fragment left after subtilisin A cleavage; Disulfide-linked dimer: ~26 kDa without βME, ~13 kDa with βME; also called dimeric N-termini; HA fragment of ~26 kDa (non-reducing), ~13 kDa (reducing); source: 293T, transfected with HIV-1 Δvpu and HA-tetherin; cells treated with subtilisin A; released virions pelleted through sucrose …
- stoichiometry N [3]: 2
